Data: the Human Domainome abundance scans (Beltran et al. 2025)
± gives the uncertainty stated by the source.

B1: POU domain, class 3, transcription factor 3, residues 320 to 388; numbered along this chain, P20264 (parent)
chain: DDLEQFAKQFKQRRIKLGFTQADVGLALGTLYGNVFSQTTICRFEALQLSFKNMCKLKPLLNKWLEEAD

Variants of: B1
Assay: abundance fitness (aPCA) (normalised: wild type 0, dead -1); higher = more abundant; growth selection in yeast, the domain comes from the species named
Conditions: Homo sapiens

Abundance fitness of substitutions, site by site:
F19: W -0.408 ± 0.2, L -0.202 ± 0.1, V -0.236 ± 0.11, A -0.243 ± 0.12, P -0.625 ± 0.3, K -0.426 ± 0.19, G -1.03 ± 0.38, I 0.119 ± 0.18, R -0.466 ± 0.19, E -0.495 ± 0.43, S -0.848 ± 0.3
L26: W -0.24 ± 0.07, S 0.071 ± 0.13, Y 0.035 ± 0.23, M 0.058 ± 0.086, C -0.045 ± 0.21, D -0.016 ± 0.15, G -0.227 ± 0.065, V -0.147 ± 0.077, T -0.515 ± 0.17, E 0.133 ± 0.077, R 0.128 ± 0.058, Q 0.017 ± 0.14, K -0.076 ± 0.1, A 0.005 ± 0.079
L28: M -0.594 ± 0.17, K -0.682 ± 0.3, V -0.703 ± 0.12, S -0.94 ± 0.21, G -0.943 ± 0.12, N -0.71 ± 0.23, A -0.639 ± 0.2, T -0.8 ± 0.34, Q -0.747 ± 0.24, R -1.02 ± 0.19, W -0.981 ± 0.27
V24: A -0.677 ± 0.22, D -0.882 ± 0.44, S -0.941 ± 0.31, I -0.766 ± 0.37, N -0.74 ± 0.33, C -0.531 ± 0.41, K -0.899 ± 0.25, R -0.788 ± 0.12, P -0.673 ± 0.29, L -0.679 ± 0.18, F 0.197 ± 0.23, W -1.05 ± 0.35
A27: Y -0.502 ± 0.17, K 0.021 ± 0.11, I -0.711 ± 0.22, W -0.101 ± 0.08, L -0.456 ± 0.098, S -0.239 ± 0.083, E -0.375 ± 0.11, D -0.613 ± 0.21, V -0.509 ± 0.079, Q 0.228 ± 0.12, R 0.031 ± 0.056, H -0.022 ± 0.15, G -0.262 ± 0.09, P -0.8 ± 0.2, M -0.427 ± 0.18, C 0.232 ± 0.24
S37: V -0.7 ± 0.19, F -0.841 ± 0.28, L -0.629 ± 0.11, D -0.157 ± 0.4, K -0.532 ± 0.18, T -0.337 ± 0.14, E -0.32 ± 0.13, G -0.44 ± 0.12, N -0.338 ± 0.3, Y -0.725 ± 0.3, R -0.55 ± 0.12, Q -0.386 ± 0.26, H -0.076 ± 0.11, C -0.629 ± 0.26, A -0.246 ± 0.13
K16: Q -0.043 ± 0.16, D -0.102 ± 0.14, R -0.088 ± 0.072, S -0.33 ± 0.17, Y -0.088 ± 0.3, L -0.064 ± 0.087, W -0.696 ± 0.17, E -0.382 ± 0.15, M -0.282 ± 0.15, F -0.569 ± 0.37, C -0.543 ± 0.4, A 0.004 ± 0.16, T 0.021 ± 0.32
G33: F -0.766 ± 0.38, S -0.885 ± 0.36, M -0.792 ± 0.23, I -0.7 ± 0.33, Q -0.263 ± 0.44, H -0.753 ± 0.45, W -0.722 ± 0.46, D -0.545 ± 0.16, P -0.204 ± 0.19, L -0.922 ± 0.19, Y -0.523 ± 0.31, A -0.382 ± 0.096, V -1.09 ± 0.23
Q38: H -0.524 ± 0.31, C -0.32 ± 0.15, G 0.003 ± 0.065, D -0.075 ± 0.4, K -0.18 ± 0.1, F -0.356 ± 0.21, L -0.531 ± 0.097, A -0.143 ± 0.1, E 0.192 ± 0.089
T20: S -0.079 ± 0.076, K -0.738 ± 0.28, V -1.02 ± 0.35, P -0.627 ± 0.29, A -0.556 ± 0.16, W -0.862 ± 0.26, R -0.908 ± 0.17, L -0.828 ± 0.26, G -0.556 ± 0.076
G18: K -0.546 ± 0.22, W -1.06 ± 0.43, P -0.964 ± 0.28, R -0.532 ± 0.12, H -0.749 ± 0.23, Q -0.785 ± 0.32, L -0.935 ± 0.31, E -0.893 ± 0.44, M -0.778 ± 0.18, V -0.851 ± 0.19, S -0.906 ± 0.21, N -0.029 ± 0.13, A -0.542 ± 0.2
G25: T -0.36 ± 0.14, M -0.754 ± 0.21, S -0.069 ± 0.099, N -0.753 ± 0.45, A 0.161 ± 0.12, R -0.3 ± 0.068, Q -0.682 ± 0.14, C 0.103 ± 0.26, V -0.815 ± 0.19
L31: P -0.551 ± 0.15, F -0.023 ± 0.24, Y -0.334 ± 0.17, I 0.076 ± 0.21, M -0.156 ± 0.1, K -0.118 ± 0.19, Q -0.116 ± 0.11, D -0.017 ± 0.24, V -0.195 ± 0.083, H -0.229 ± 0.14, G -0.565 ± 0.087, A -0.299 ± 0.099, C -0.237 ± 0.27, W -0.387 ± 0.09, S -0.137 ± 0.07, R 0.031 ± 0.053
Y32: G -0.225 ± 0.054, L 0.017 ± 0.12, R -0.44 ± 0.14, P -0.685 ± 0.21, Q -0.102 ± 0.17, T -0.526 ± 0.19, E -0.335 ± 0.25, V -0.557 ± 0.15, H -0.099 ± 0.1, K -0.559 ± 0.3, S 0.108 ± 0.053, M -0.647 ± 0.19, W -0.276 ± 0.14, A -0.412 ± 0.1, D -0.352 ± 0.18
N34: M -0.22 ± 0.13, H -0.094 ± 0.091, A -0.036 ± 0.073, G 0.074 ± 0.066, E 0.136 ± 0.12, S 0.109 ± 0.066, V -0.21 ± 0.078, R -0.051 ± 0.072, Q -0.172 ± 0.14, L -0.468 ± 0.14, K 0.081 ± 0.13, T -0.098 ± 0.17, F -0.569 ± 0.2, I -0.235 ± 0.16, C 0.307 ± 0.11, W -0.84 ± 0.23, D -0.085 ± 0.26, Y -0.295 ± 0.044
F36: T 0.071 ± 0.11, R 0.368 ± 0.17, A -0.068 ± 0.16, M 0.021 ± 0.13, P -0.043 ± 0.2, Y -0.04 ± 0.14, Q -0.214 ± 0.17, K -0.364 ± 0.2, H -0.216 ± 0.19, L -0.07 ± 0.078, W -0.714 ± 0.23, V 0.017 ± 0.073, C 0.219 ± 0.22, E -0.121 ± 0.2
I15: S -0.17 ± 0.036, W -0.751 ± 0.29, L -0.252 ± 0.059, R -0.421 ± 0.082, E 0.058 ± 0.14, Q -0.052 ± 0.24, F -0.249 ± 0.22, K -0.336 ± 0.15, M -0.426 ± 0.2, P -0.501 ± 0.15, H -0.875 ± 0.36, G -0.778 ± 0.18
R13: T -0.561 ± 0.18, W -0.697 ± 0.16, V -0.311 ± 0.099, Y -0.651 ± 0.17
G29: N 0.041 ± 0.14, F -0.388 ± 0.16, A 0.056 ± 0.068, Y -0.108 ± 0.098, V -0.468 ± 0.13, P -0.658 ± 0.21, W -0.478 ± 0.34, E -0.02 ± 0.17, K -0.01 ± 0.12, H -0.154 ± 0.22, L -0.929 ± 0.44, R 0.02 ± 0.07, C -0.594 ± 0.3, T -0.004 ± 0.095, I -0.464 ± 0.2, D -0.736 ± 0.24, Q -0.554 ± 0.44, M -0.427 ± 0.12, S 0.092 ± 0.079
A22: W -0.83 ± 0.26, V -0.513 ± 0.1, P -0.849 ± 0.44, T -0.162 ± 0.27, L -0.49 ± 0.12, S -0.243 ± 0.085, Q 0.036 ± 0.2, I -0.392 ± 0.39, H 0.228 ± 0.34, G -0.25 ± 0.13, K 0.103 ± 0.1, R -0.163 ± 0.082, F -0.293 ± 0.21, E -0.17 ± 0.15
R14: E -0.859 ± 0.23, Y -0.764 ± 0.27, A -0.823 ± 0.2, T -0.939 ± 0.25, G -0.871 ± 0.25, F -0.829 ± 0.37, S -0.813 ± 0.21, W -0.944 ± 0.39, M -0.954 ± 0.35, L -0.783 ± 0.08, C -0.681 ± 0.23, Q -0.861 ± 0.28, V -0.751 ± 0.22
V35: P -0.105 ± 0.44, C -0.417 ± 0.17, H -0.152 ± 0.2, F -0.179 ± 0.069, N -0.601 ± 0.41, M -0.278 ± 0.28, T 0.304 ± 0.11, Y -0.108 ± 0.09, G -0.204 ± 0.13, R -0.009 ± 0.071, E 0.172 ± 0.11, Q 0.033 ± 0.11, A -0.537 ± 0.26, S -0.125 ± 0.085, D 0.091 ± 0.086, L -0.462 ± 0.13, I -0.609 ± 0.16
Q21: H -0.08 ± 0.11, S -0.242 ± 0.16, K -0.298 ± 0.18, M -0.489 ± 0.25, P -0.23 ± 0.15, L -0.271 ± 0.14, T -0.507 ± 0.35, Y -0.147 ± 0.42, R -0.184 ± 0.065, I 0.145 ± 0.28, W -0.284 ± 0.14, V -0.017 ± 0.11, G -0.629 ± 0.22, E -0.061 ± 0.12, C -0.278 ± 0.39, A -0.281 ± 0.12
D23: F -0.998 ± 0.49, P -1.04 ± 0.42, G -0.185 ± 0.06, V -0.937 ± 0.17, Y -0.778 ± 0.38, K -0.764 ± 0.24, N -0.687 ± 0.48, Q 0.039 ± 0.13, R -0.187 ± 0.075, S -0.743 ± 0.17, I -0.704 ± 0.46, E -0.023 ± 0.049, M -0.802 ± 0.26
T30: M -0.077 ± 0.094, Y -0.459 ± 0.18, S 0.01 ± 0.082, F -0.514 ± 0.14, H -0.232 ± 0.15, Q 0.1 ± 0.15, W -0.421 ± 0.12, A 0.063 ± 0.086, G -0.013 ± 0.051, P -0.115 ± 0.078, K 0.336 ± 0.2, D -0.062 ± 0.21, L -0.325 ± 0.034, V -0.034 ± 0.23, E -0.177 ± 0.15, R -0.08 ± 0.078, I -0.446 ± 0.14, N -0.348 ± 0.14
